{
  "source": "paper PMC5378721",
  "about": "“The Proteasomal ATPases Use a Slow but Highly Processive Strategy to Unfold Proteins” (Frontiers in Molecular Biosciences, 2017)",
  "molecules": {"B1": {"name": "PAN (Proteasome Activating Nucleotidase), with T20S (Methanocaldococcus jannaschii DSM 2661) (protein)", "chain": "MVFEEFISTELKKEKKAFTEEFKEEKEINDNSNLKNDLLKEELQEKARIAELESRILKLELEKKELERENLQLMKENEILRRELDRMRVPPLIVGTVVDKVGERKVVVKSSTGPSFLVNVSHFVNPDDLAPGKRVCLNQQTLTVVDVLPENKDYRAKAMEVDERPNVRYEDIGGLEKQMQEIREVVELPLKHPELFEKVGIEPPKGILLYGPPGTGKTLLAKAVATETNATFIRVVGSELVKKFIGEGASLVKDIFKLAKEKAPSIIFIDEIDAIAAKRTDALTGGDREVQRTLMQLLAEMDGFDARGDVKIIGATNRPDILDPAILRPGRFDRIIEVPAPDEKGRLEILKIHTRKMNLAEDVNLEEIAKMTEGCVGAELKAICTEAGMNAIRELRDYVTMDDFRKAVEKIMEKKKVKVKEPAHLDVLYR", "notes": "homohexamer; with Proteasome subunit alpha (20S proteasome of Thermoplasma acidophilum, T20S); Proteasome subunit beta (20S proteasome of Thermoplasma acidophilum, T20S)"}},
  "key": {"[1]": {"biological_target": "T1, PAN (Proteasome Activating Nucleotidase), with T20S (Methanocaldococcus jannaschii, UniProt Q58576)", "T1 construct": "homohexamer; with Proteasome subunit alpha (20S proteasome of Thermoplasma acidophilum, T20S); Proteasome subunit beta (20S proteasome of Thermoplasma acidophilum, T20S)", "T1 sequence (P25156 whole entry partner, one chain of several)": "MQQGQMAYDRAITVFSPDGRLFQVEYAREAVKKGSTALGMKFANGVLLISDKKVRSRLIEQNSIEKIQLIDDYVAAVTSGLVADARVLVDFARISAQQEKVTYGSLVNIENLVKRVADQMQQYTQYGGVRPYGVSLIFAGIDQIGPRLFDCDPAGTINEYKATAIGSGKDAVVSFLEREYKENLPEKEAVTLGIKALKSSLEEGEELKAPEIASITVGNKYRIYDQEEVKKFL", "T1 sequence (P28061 9-211 partner, one chain of several)": "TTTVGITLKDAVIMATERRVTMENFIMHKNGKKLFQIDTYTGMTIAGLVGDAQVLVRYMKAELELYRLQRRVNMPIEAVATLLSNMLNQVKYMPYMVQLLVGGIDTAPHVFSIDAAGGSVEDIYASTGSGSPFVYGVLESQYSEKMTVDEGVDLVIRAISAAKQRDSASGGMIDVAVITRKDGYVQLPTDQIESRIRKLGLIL", "test": "GFPssrA unfolding, loss of fluorescence […], ATPγS:ATP ratio series", "type": "biochemical", "conditions": "competing with ATP, 2 mM total nucleotide, 0.2 μM GFPssrA, 400 nM T20S, 20 mM MgCl2, pH 7.5"}, "[2]": {"biological_target": "PAN (Proteasome Activating Nucleotidase) (UniProt Q58576)"}, "purified protein": {"substrate": "Nc1ncnc2c1ncn2[C@@H]1O[C@H](COP(=O)(O)OP(=O)(O)OP(=O)(O)O)[C@@H](O)[C@H]1O", "test": "purified protein", "type": "biochemical, Methanocaldococcus jannaschii", "conditions": "0.2 μM GFPssrA, 400 nM T20S, 20 mM MgCl2, pH 7.5, ATP hydrolysis read-out, printed unit doubtful: ATP was varied 0–3 mM, so mM likely meant"}},
  "data": [
    {"molecule": "Nc1ncnc2c1ncn2[C@@H]1O[C@H](COP(=O)(O)OP(=O)(O)OP(O)(O)=S)[C@@H](O)[C@H]1O", "note": "[ATPγS]", "values": [
      {"measurement": "GFPssrA unfolding, loss of fluorescence 485/510, ATPγS:ATP ratio series", "setting": "[1]", "result": "as the ATPγS:ATP ratio increased, GFPssrA unfolding rate decreased"}
    ]},
    {"molecule": "GFPssrA (GFP with an unstructured ssrA tag)", "values": [
      {"measurement": "Km for GFPssrA in ATP-dependent unfolding by PAN (steady-state loss of GFP fluorescence, ex/em 485/510; GFPssrA 0 to 10 μM, 50 nM PAN, 400 nM T20S, 2 mM ATP)", "setting": "[2]", "result": 0.187, "unit": "µM"}
    ]},
    {"molecule": "B1", "values": [
      {"measurement": "Km", "setting": "purified protein", "result": "0.000397 ± 1.7e-05", "unit": "mM"}
    ]}
  ]
}
